Assay results published in US20220308072A1.

Assays:
[1] = target: Recombinant, his tagged full length human frataxin protein (Abcam ab95502) (human) (UniProt Q16595); assay: Simoa sandwich; capture Ab-1; no helper beads; frataxin 2.06 pg/mL
[2] = target: Recombinant, his tagged full length human frataxin protein (Abcam ab95502) (human) (UniProt Q16595); assay: Simoa sandwich 3-step; capture Ab-2; frataxin 10000 pg/mL
[3] = target: Recombinant, his tagged full length human frataxin protein (Abcam ab95502) (human) (UniProt Q16595); assay: Simoa sandwich 2-step (35 min-5 min); capture Ab-1; with helper beads
[4] = target: Recombinant, his tagged full length human frataxin protein (Abcam ab95502) (human) (UniProt Q16595); assay: Simoa sandwich 3-step; capture Ab-3; frataxin 100 pg/mL
[5] = target: Recombinant, his tagged full length human frataxin protein (Abcam ab95502) (human) (UniProt Q16595); assay: Simoa sandwich 2-step; capture Ab-1
[6] = target: Recombinant, his tagged full length human frataxin protein (Abcam ab95502) (human) (UniProt Q16595); assay: Simoa sandwich 2-step; capture Ab-1; 150 pM SβG; frataxin 0.686 pg/mL
[7] = target: Recombinant, his tagged full length human frataxin protein (Abcam ab95502) (human) (UniProt Q16595); assay: Simoa sandwich 2-step (120 min-5 min); capture Ab-1
[8] = target: Recombinant, his tagged full length human frataxin protein (Abcam ab95502) (human) (UniProt Q16595); assay: Simoa sandwich 2-step; capture Ab-2; frataxin 0.686 pg/mL
[9] = target: Recombinant, his tagged full length human frataxin protein (Abcam ab95502) (human) (UniProt Q16595); assay: Simoa sandwich 2-step; capture Ab-1; 150 pM SβG; frataxin 500 pg/mL
[10] = target: Recombinant, his tagged full length human frataxin protein (Abcam ab95502) (human) (UniProt Q16595); assay: Simoa sandwich 2-step (35 min-5 min); capture Ab-1; with helper beads; frataxin 18.5 pg/mL
[11] = target: Recombinant, his tagged full length human frataxin protein (Abcam ab95502) (human) (UniProt Q16595); assay: Simoa sandwich 2-step; capture Ab-2
[12] = target: Recombinant, his tagged full length human frataxin protein (Abcam ab95502) (human) (UniProt Q16595); assay: Simoa sandwich 2-step; capture Ab-2; frataxin 500 pg/mL
[13] = target: Recombinant, his tagged full length human frataxin protein (Abcam ab95502) (human) (UniProt Q16595); assay: Simoa sandwich 2-step; capture Ab-1; 50 pM SβG; frataxin 0.686 pg/mL
[14] = target: Recombinant, his tagged full length human frataxin protein (Abcam ab95502) (human) (UniProt Q16595); assay: Simoa sandwich 2-step (120 min-5 min); capture Ab-1; Diluent 1 + 10% NCS; frataxin 111 pg/mL
[15] = target: Recombinant, his tagged full length human frataxin protein (Abcam ab95502) (human) (UniProt Q16595); assay: Simoa sandwich 2-step (120 min-5 min); capture Ab-1; frataxin 8.23 pg/mL
[16] = target: Recombinant, his tagged full length human frataxin protein (Abcam ab95502) (human) (UniProt Q16595); assay: Simoa sandwich 2-step; capture Ab-1; frataxin 6.17 pg/mL
[17] = target: Recombinant, his tagged full length human frataxin protein (Abcam ab95502) (human) (UniProt Q16595); assay: Simoa sandwich 2-step (120 min-5 min); capture Ab-1; Diluent 1 + 10% NCS; frataxin 12.3 pg/mL
[18] = target: Recombinant, his tagged full length human frataxin protein (Abcam ab95502) (human) (UniProt Q16595); assay: Simoa sandwich 2-step (120 min-5 min); capture Ab-1; Diluent 1 + 10% NCS; frataxin 7.41 pg/mL
[19] = target: Recombinant, his tagged full length human frataxin protein (Abcam ab95502) (human) (UniProt Q16595); assay: Simoa sandwich; capture Ab-1; no helper beads; frataxin 0.686 pg/mL
[20] = target: Recombinant, his tagged full length human frataxin protein (Abcam ab95502) (human) (UniProt Q16595); assay: Simoa sandwich 2-step (35 min-5 min); capture Ab-1; with helper beads; frataxin 6.17 pg/mL
[21] = target: Recombinant, his tagged full length human frataxin protein (Abcam ab95502) (human) (UniProt Q16595); assay: Simoa sandwich 3-step; capture Ab-1; frataxin 100 pg/mL
[22] = target: Recombinant, his tagged full length human frataxin protein (Abcam ab95502) (human) (UniProt Q16595); assay: Simoa sandwich 2-step (120 min-5 min); capture Ab-1; Diluent 1 + 5% NCS; frataxin 4.12 pg/mL
[23] = target: Recombinant, his tagged full length human frataxin protein (Abcam ab95502) (human) (UniProt Q16595); assay: Simoa sandwich; capture Ab-1; no helper beads; frataxin 55.6 pg/mL
[24] = target: Recombinant, his tagged full length human frataxin protein (Abcam ab95502) (human) (UniProt Q16595); assay: Simoa sandwich 2-step; capture Ab-2; frataxin 18.5 pg/mL
[25] = target: Recombinant, his tagged full length human frataxin protein (Abcam ab95502) (human) (UniProt Q16595); assay: Simoa sandwich 2-step; capture Ab-1; frataxin 1000 pg/mL

Sequence of UniProt Q16595 (Q16595 42-210): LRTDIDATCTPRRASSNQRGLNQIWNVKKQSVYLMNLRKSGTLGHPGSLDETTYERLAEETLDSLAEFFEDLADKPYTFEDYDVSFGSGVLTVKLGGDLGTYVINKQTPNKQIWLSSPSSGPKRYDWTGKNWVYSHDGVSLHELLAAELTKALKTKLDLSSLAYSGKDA

Ab-3, mouse monoclonal [18A5DB1] to Frataxin (Abcam ab110328) (antibody)
AEB Rep1 [1]: 0.0405 AEB | AEB Rep2 [1]: 0.043 AEB | Ave AEB [1]: 0.0418 AEB | S/B [1]: 1.85 | Ave AEB [2]: 32.2 AEB | S/B [2]: 725 | Estimated LLOQ [3]: 0.321 pg/mL | LOD [3]: 0.117 pg/mL | Ave AEB [4]: 0.0152 AEB | S/B [4]: 3.21 | LOD [5]: 0.28 pg/mL | Ave AEB [6]: 0.0717 AEB | S/B [6]: 1.6 | LOD [7]: 0.465 pg/mL | Ave AEB [8]: 0.165 AEB | S/B [8]: 1.73 | Ave AEB [9]: 23.7 AEB | S/B [9]: 527 | AEB Rep1 [10]: 1.14 AEB | AEB Rep2 [10]: 1.19 AEB | Ave AEB [10]: 1.16 AEB | S/B [10]: 47.8 | LOD [11]: 0.23 pg/mL | Ave AEB [12]: 25.1 AEB | S/B [12]: 263 | Ave AEB [13]: 0.0421 AEB | S/B [13]: 2.3 | Ave AEB [14]: 0.515 AEB | S/B [14]: 48 | AEB rep1 [15]: 0.0466 AEB | AEB rep2 [15]: 0.048 AEB | AEB rep3 [15]: 0.0517 AEB | Ave AEB [15]: 0.0487 AEB | S/B [15]: 5.91 | Ave AEB [16]: 0.737 AEB | S/B [16]: 7.1 | Ave AEB [17]: 0.0631 AEB | S/B [17]: 5.87 | Ave AEB [18]: 0.0923 AEB | S/B [18]: 5.08 | AEB Rep1 [19]: 0.0328 AEB | AEB Rep2 [19]: 0.028 AEB | Ave AEB [19]: 0.0304 AEB | S/B [19]: 1.34 | AEB Rep1 [20]: 0.387 AEB | AEB Rep2 [20]: 0.399 AEB | Ave AEB [20]: 0.393 AEB | S/B [20]: 16.1 | Ave AEB [21]: 2.5 AEB | S/B [21]: 42.3 | Ave AEB [22]: 0.0434 AEB | S/B [22]: 3.95 | AEB Rep1 [23]: 1.16 AEB | AEB Rep2 [23]: 0.608 AEB | Ave AEB [23]: 0.885 AEB | S/B [23]: 39.1 | Ave AEB [24]: 2.15 AEB | S/B [24]: 22.5 | Ave AEB [25]: 30.7 AEB | S/B [25]: 384
